Reference: patent JP2023550785A
Read-outs that look alike come from different tables or passages of the source.

How the values were obtained:
[1] = molecular target: SARS-CoV-2 (BetaCoV/Wuhan-Hu-1/2019) prefusion-stabilized spike (S) protein / S ectodomain trimer (SARS-CoV-2 (BetaCoV/Wuhan-Hu-1/2019)) (UniProt P0DTC2); test: SPR (Biacore T200), S ectodomain trimer captured, Fab as analyte
[2] = molecular target: SARS-CoV-2 (BetaCoV/Wuhan-Hu-1/2019) prefusion-stabilized spike (S) protein / S ectodomain trimer (SARS-CoV-2 (BetaCoV/Wuhan-Hu-1/2019)) (UniProt P0DTC2)

antibody S2P6 (antibody 420 1 1), human monoclonal antibody expressed as recombinant human IgG1, sequence (VH): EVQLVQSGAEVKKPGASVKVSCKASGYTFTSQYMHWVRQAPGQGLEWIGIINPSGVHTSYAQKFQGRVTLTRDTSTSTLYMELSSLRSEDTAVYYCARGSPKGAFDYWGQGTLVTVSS
antibody S2P6 (antibody 420 1 1), human monoclonal antibody expressed as recombinant human IgG1, sequence (VL): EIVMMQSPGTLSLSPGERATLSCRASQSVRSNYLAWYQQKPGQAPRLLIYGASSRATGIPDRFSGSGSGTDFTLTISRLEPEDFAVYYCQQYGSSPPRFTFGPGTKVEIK
S2P6 Fab fragment, sequence (VH): as the sequence (VH) above
S2P6 Fab fragment, sequence (VL): as the sequence (VL) above

## S2P6 Fab fragment
[1]
  Kd: 7 nM

## antibody S2P6 (antibody 420 1 1), human monoclonal antibody expressed as recombinant human IgG1
[2]
  Kd: < 1 pM
  koff: < 1e-07 s⁻¹
  kon: 453000 M⁻¹ s⁻¹
